B1: untagged WT (pSG5) [not stated] / VPS36 precipitated with HA beads (Fig. 4c) [not stated] (parent)
chain 1: MGNGLSDQTSILSNLPSFQSFHIVILGLDCAGKTTVLYRLQFNEFVNTVPTKGFNTEKIKVTLGNSKTVTFHFWDVGGQEKLRPLWKSYTRCTDGIVFVVDSVDVERMEEAKTELHKITRISENQGVPVLIVANKQDLRNSLSLSEIEKLLAMGELSSSTPWHLQPTCAIIGDGLKEGLEKLHDMIIKRRKMLRQQKKKR
chain 2: MDRFVWTSGLLEINETLVIQQRGVRIYDGEEKIKFDAGTLLLSTHRLIWRDQKNHECCMAILLSQIVFIEEQAAGIGKSAKIVVHLHPAPPNKEPGPFQSSKNSYIKLSFKEHGQIEFYRRLSEEMTQRRWENMPVSQSLQTNRGPQPGRIRAVGIVGIERKLEEKRKETDKNISEAFEDLSKLMIKAKEMVELSKSIANKIKDKQGDITEDETIRFKSYLLSMGIANPVTRETYGSGTQYHMQLAKQLAGILQVPLEERGGIMSLTEVYCLVNRARGMELLSPEDLVNACKMLEALKLPLRLRVFDSGVMVIELQSHKEEEMVASALETVSEKGSLTSEEFAKLVGMSVLLAKERLLLAEKMGHLCRDDSVEGLRFYPNLFMTQS

Variants of: B1
Assay: co-immunoprecipitation (HA beads) with densitometric quantification
Details: with VPS36 precipitated with HA beads (Fig. 4c); HeLa cell lysates; parent: 1; read off a plot

| Variant | ratio to parent |
| --- | --- |
| chain 1 MGNGLSDQTSILSNLPSFQSFHIVILGLDCAGKTTVLYRLQFNEFVNTVPNKGFNTEKIKVTLGNSKTVTFHFWDVGGQEKLRPLWKSYTRCTDGIVFVVDSVDVERMEEAKTELHKITRISENQGVPVLIVANKQDLRNSLSLSEIEKLLAMGELSSSTPWHLQPTCAIIGDGLKEGLEKLHDMIIKRRKMLRQQKKKR [chain 1 T51N] | 2.6 |
| chain 1 MGNGLSDQTSILSNLPSFQSFHIVILGLDCAGKTTVLYRLQFNEFVNTVPTKGFNTEKIKVTLGNSKTVTFHFWDVGGLEKLRPLWKSYTRCTDGIVFVVDSVDVERMEEAKTELHKITRISENQGVPVLIVANKQDLRNSLSLSEIEKLLAMGELSSSTPWHLQPTCAIIGDGLKEGLEKLHDMIIKRRKMLRQQKKKR [chain 1 Q79L] | 1.4 |

From article PMC10687025, “Endosomal Arl4A attenuates EGFR degradation by binding to the ESCRT-II component VPS36” (Nature Communications, 2023)
